B1: iron-sulfur protein (ISP), spinach (natural protein, UniProt P08980 52-230, looked up)
chain: ATSIPADNVPDMQKRETLNLLLLGALSLPTGYMLLPYASFFVPPGGGAGTGGTIAKDALGNDVIAAEWLKTHAPGDRTLTQGLKGDPTYLVVESDKTLATFGINAVCTHLGCVVPFNAAENKFICPCHGSQYNNQGRVVRGPAPLSLALAHCDVDDGKVVFVPWTETDFRTGEAPWWSA
B2: cytochrome b6, spinach (natural protein, UniProt P00165 1-215, looked up)
chain: MSKVYDWFEERLEIQAIADDITSKYVPPHVNIFYCLGGITLTCFLVQVATGFAMTFYYRPTVTDAFASVQYIMTEVNFGWLIRSVHRWSASMMVLMMILHVFRVYLTGGFKKPRELTWVTGVVLGVLTASFGVTGYSLPWDQIGYWAVKIVTGVPDAIPVIGSPLVELLRGSASVGQSTLTRFYSLHTFVLPLLTAVFMLMHFLMIRKQGISGPL
B3: subunit IV, spinach (natural protein, UniProt P00166 1-160, looked up)
chain: MGVTKKPDLNDPVLRAKLAKGMGHNYYGEPAWPNDLLYIFPVVILGTIACNVGLAVLEPSMIGEPADPFATPLEILPEWYFFPVFQILRTVPNKLLGVLLMASVPAGLLTVPFLENVNKFQNPFRRPVATTVFLVGTVVALWLGIGATLPIDKSLTLGLF

Each binder was assayed against cytochrome f (PetA), spinach (spinach, UniProt P16013 36-320) (assay: co-purification with SDS-PAGE densitometry).
cytochrome f (PetA), spinach, sequence (P16013 36-320): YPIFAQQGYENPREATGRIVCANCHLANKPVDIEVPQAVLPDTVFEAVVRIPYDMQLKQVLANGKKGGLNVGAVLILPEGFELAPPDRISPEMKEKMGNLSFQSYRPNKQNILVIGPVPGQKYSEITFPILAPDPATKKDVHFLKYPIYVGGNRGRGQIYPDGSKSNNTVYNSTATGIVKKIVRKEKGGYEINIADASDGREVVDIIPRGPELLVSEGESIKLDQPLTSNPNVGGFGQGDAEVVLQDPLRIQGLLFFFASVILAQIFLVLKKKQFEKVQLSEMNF

Binder	stoichiometry N
B1	0.95 relative to cyt f
B2	0.96 relative to cyt f
B3	0.85 relative to cyt f
